Measured values from paper PMC4917739.

Key:
[1] = target: single-chain BG505 SOSIP.664 trimer (HIV-1 strain BG505); assay: SPR
[2] = target: BG505 SOSIP.664 trimer (HIV-1 strain BG505); assay: SPR
[3] = target: BG505 SOSIP.664 N88Q (HIV-1 strain BG505); assay: SPR
[4] = target: BG505 SOSIP.664 trimer (HIV-1 strain BG505); assay: negative-stain electron microscopy

Q: What does the source list for Fab VRC34.01?
A: Kd [1]: 272 nM; Kd [2]: 0.3 nM; Kd [3]: 19.9 nM; stoichiometry N [4]: 3
